Source: the RNAGym collection of RNA variant scans (doi:10.7554/elife.80360)

B1: Hairpin Ribozyme (parent)
chain: GUCCUCUUUCACGUGCGCGUGAAAGAGAGAAGUGAACCAGAGAAACACACGUUGUGGUAUAUUACCUGGUA

Variants of: B1
Experiment: self-cleavage, relative activity (ratio to wild type); higher = more cleavage; co-transcriptional

Compared with GUCCUCUUUCACGUGCGCGUGAAAGAGAGGAGUGAACCAGAGAAACACACGUUGUUGUAUAUUACCUGGUA [A30G G56U], GUCCUCUUUCACGUGCGCGUGAAAGAGAGGAGUGAACCAGAGAAACACACGUUGUAGUAUAUUACCUGGUA [A30G G56A] is lower in self-cleavage: 0.133 for the first, 0.0987 for the second.

First: GUCCUCUUUCACGUGCGCGUGAAAGAGAGGAGUGAACCAGUGAAACACACGUUGUGGUAUAUUACCUGGUA [A30G A41U]
Second: GUCCUCUUUCACGUGCGCGUGAAAGAGAGGAGUGAACCAGAGAAACACACGUUGUGGUAUAUAACCUGGUA [A30G U63A]
The self-cleavage of the first is higher: 0.244 for the first, 0.0503 for the second.

Going from GUCCUCUUUCACGUGCGCGUGAAAGAGAGGAGUGAACCAGAGAAACACACGUUGUGGUAUAUGACCUGGUA [A30G U63G] to GUCCUCUUUCACGUGCGCGUGAAAGAGAGGAGUGAACCAGAGAAACACACGUUGUGGUAUAUCACCUGGUA [A30G U63C], the self-cleavage rises from 0.101 to 0.185.

Going from GUCCUCUUUCACGUGCGCGUGAAAGAGAGUAGUGAACCAGAGAAACACACGUUGUGGUAUAUUAACUGGUA [A30U C65A] to GUCCUCUUUCACGUGCGCGUGAAAGAGAGCAGUGAACCAGAGAAACACACGUUGUGGCAUAUUACCUGGUA [A30C U58C], the self-cleavage rises from 0.14 to 0.158.

Going from GUCCUCUUUCACGUGCGCGUGAAAGAGAGUAGUGUACCAGAGAAACACACGUUGUGGUAUAUUACCUGGUA [A30U A35U] to GUCCUCUUUCACGUGCGCGUGAAAGAGAGUAGUGCACCAGAGAAACACACGUUGUGGUAUAUUACCUGGUA [A30U A35C], the self-cleavage falls from 0.196 to 0.0881.

Going from GUCCUCUUUCACGUGCGCGUGAAAGAGAGUAGUGAACCAGAGAAACACACGUUGUGGUAUAUUCCCUGGUA [A30U A64C] to GUCCUCUUUCACGUGCGCGUGAAAGAGAGUAGUGAACCAGAGAAACACACGUUGUGGUAUAUUGCCUGGUA [A30U A64G], the self-cleavage falls from 0.174 to 0.106.

Going from GUCCUCUUUCACGUGCGCGUGAAAGAGAGUAGUGACCCAGAGAAACACACGUUGUGGUAUAUUACCUGGUA [A30U A36C] to GUCCUCUUUCACGUGCGCGUGAAAGAGAGUAGUGAGCCAGAGAAACACACGUUGUGGUAUAUUACCUGGUA [A30U A36G], the self-cleavage rises from 0.0422 to 0.248.

First: GUCCUCUUUCACGUGCGCGUGAAAGAGAGGAGUGAACCAGAGAAACACACGUUAUGGUAUAUUACCUGGUA [A30G G54A]
Second: GUCCUCUUUCACGUGCGCGUGAAAGAGAGGAGUGAACCAGAGAAACACACUUUGUGGUAUAUUACCUGGUA [A30G G51U]
The self-cleavage of the first is lower: 0.102 for the first, 0.157 for the second.

Going from GUCCUCUUUCACGUGCGCGUGAAAGAGAGGAGUGAACCAGAGAAACACGCGUUGUGGUAUAUUACCUGGUA [A30G A49G] to GUCCUCUUUCACGUGCGCGUGAAAGAGAGGAGUGAACCAGAGAAACACCCGUUGUGGUAUAUUACCUGGUA [A30G A49C], the self-cleavage rises from 0.0332 to 0.0806.

Going from GUCCUCUUUCACGUGCGCGUGAAAGAGAGGAGUGAACCAGAGAAACACUCGUUGUGGUAUAUUACCUGGUA [A30G A49U] to GUCCUCUUUCACGUGCGCGUGAAAGAGAGGAGUGAAUCAGAGAAACACACGUUGUGGUAUAUUACCUGGUA [A30G C37U], the self-cleavage rises from 0.0894 to 0.136.

Going from GUCCUCUUUCACGUGCGCGUGAAAGAGAGGAGUGAACCAGAGAAACACACGUUGUGGUAUAUUACCGGGUA [A30G U67G] to GUCCUCUUUCACGUGCGCGUGAAAGAGAGGAGUGAACCAGAGAAACACACGUUGUGGUAUAUUACCCGGUA [A30G U67C], the self-cleavage rises from 0.0921 to 0.119.

Compared with GUCCUCUUUCACGUGCGCGUGAAAGAGAGGAGCGAACCAGAGAAACACACGUUGUGGUAUAUUACCUGGUA [A30G U33C], GUCCUCUUUCACGUGCGCGUGAAAGAGAGUAGUGAACCAGAGAAAGACACGUUGUGGUAUAUUACCUGGUA [A30U C46G] is higher in self-cleavage: 0.0632 for the first, 0.252 for the second.

Compared with GUCCUCUUUCACGUGCGCGUGAAAGAGAGUAGUGAACCAGAGAAAAACACGUUGUGGUAUAUUACCUGGUA [A30U C46A], GUCCUCUUUCACGUGCGCGUGAAAGAGAGGAGUGAACCAUAGAAACACACGUUGUGGUAUAUUACCUGGUA [A30G G40U] is lower in self-cleavage: 0.128 for the first, 0.0805 for the second.

Going from GUCCUCUUUCACGUGCGCGUGAAAGAGAGGAGUGAACCAGAGAGACACACGUUGUGGUAUAUUACCUGGUA [A30G A44G] to GUCCUCUUUCACGUGCGCGUGAAAGAGAGGAGUGAACCAGAGACACACACGUUGUGGUAUAUUACCUGGUA [A30G A44C], the self-cleavage rises from 0.108 to 0.169.

First: GUCCUCUUUCACGUGCGCGUGAAAGAGAGGAGUGAACCAGAGAAUCACACGUUGUGGUAUAUUACCUGGUA [A30G A45U]
Second: GUCCUCUUUCACGUGCGCGUGAAAGAGAGGAGUGAACCAGAAAAACACACGUUGUGGUAUAUUACCUGGUA [A30G G42A]
The self-cleavage of the first is higher: 0.177 for the first, 0.113 for the second.

Going from GUCCUCUUUCACGUGCGCGUGAAAGAGAGGAGUGAACCAGACAAACACACGUUGUGGUAUAUUACCUGGUA [A30G G42C] to GUCCUCUUUCACGUGCGCGUGAAAGAGAGGAGUGAACCAGAGAAACACACGUUGUGGUAAAUUACCUGGUA [A30G U60A], the self-cleavage falls from 0.169 to 0.125.

Compared with GUCCUCUUUCACGUGCGCGUGAAAGAGAGGAGUGAACCAGAGAAACACACGUUGUGGUAGAUUACCUGGUA [A30G U60G], GUCCUCUUUCACGUGCGCGUGAAAGAGAGUAGUGAACCAGCGAAACACACGUUGUGGUAUAUUACCUGGUA [A30U A41C] is higher in self-cleavage: 0.158 for the first, 0.256 for the second.

Compared with GUCCUCUUUCACGUGCGCGUGAAAGAGAGUAGUGAAGCAGAGAAACACACGUUGUGGUAUAUUACCUGGUA [A30U C37G], GUCCUCUUUCACGUGCGCGUGAAAGAGAGUAGUGAAACAGAGAAACACACGUUGUGGUAUAUUACCUGGUA [A30U C37A] is higher in self-cleavage: 0.0899 for the first, 0.0959 for the second.

Going from GUCCUCUUUCACGUGCGCGUGAAAGAGAGGAGUGAACCAGAGAAACACAGGUUGUGGUAUAUUACCUGGUA [A30G C50G] to GUCCUCUUUCACGUGCGCGUGAAAGAGAGCAGUGAACCAGAGAAACACACGUUGUGGUAAAUUACCUGGUA [A30C U60A], the self-cleavage falls from 0.177 to 0.12.
